In assay [1] the target is T1, human TIGIT on Jurkat cells (TIGIT/NFAT reporter Jurkat cells, BPS Bioscience #60538); Promega TIGIT Effector … (human, UniProt Q495A1 22-244).
T1 sequence (looked up): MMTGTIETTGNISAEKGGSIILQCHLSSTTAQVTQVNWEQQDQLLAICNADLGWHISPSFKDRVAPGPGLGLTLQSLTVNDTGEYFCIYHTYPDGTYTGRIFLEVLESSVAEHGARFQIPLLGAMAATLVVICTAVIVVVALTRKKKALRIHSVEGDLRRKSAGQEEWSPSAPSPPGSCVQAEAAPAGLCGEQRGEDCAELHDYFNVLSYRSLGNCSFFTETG
The experiment in a line: cell-based or functional assay.

Assay [2] has as its target T2, his-tagged murine TIGIT (Acro Biosystems #TIT-M52E6) (murine, UniProt P86176 29-148, limits assumed).
T2 construct: Bought protein; also called mouse his-tagged TIGIT; not shown: his tag
T2 sequence (looked up): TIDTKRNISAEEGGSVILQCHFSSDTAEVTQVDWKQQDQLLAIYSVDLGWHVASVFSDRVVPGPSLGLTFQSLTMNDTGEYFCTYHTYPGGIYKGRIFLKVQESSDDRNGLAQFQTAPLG
Nature of the assay: SPR (Carterra LSA), scFv-Fc captured, His-TIGIT analyte. In outline:
(§1)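 Affinity from His-TIGIT analyte injected in 1:2 serial dilution over antibody captured as scFv-Fc via amine-coupled goat anti-human Fc on an HC30M surface. Supernatants diluted 30-fold in HBSTE; kinetic fitting.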

In assay [3] the target is T3, his-tagged human TIGIT (Acro Biosystems #TIT-H52H3) (human, UniProt Q495A1 22-141).
T3 construct: Bought protein; also called His-tagged-TIGIT (human); not shown: his tag
T3 sequence (looked up): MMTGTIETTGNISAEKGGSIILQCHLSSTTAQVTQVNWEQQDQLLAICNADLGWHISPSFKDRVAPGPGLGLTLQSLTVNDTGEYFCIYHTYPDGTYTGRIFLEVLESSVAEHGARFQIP
The assay is described as above. In outline: as §1

Assay [4] deals with T4, His-tagged cynomolgus monkey TIGIT (Acro Biosystems #TIT-05223) (cynomolgus monkey, UniProt A0A7N9I9V4 89-209).
T4 construct: Bought protein; also called cyno TIGIT; cynomolgus TIGIT; not shown: His tag
The description is as above. Summed up:
as §1

In assay [5] the target is T2, his-tagged murine TIGIT (Acro …). The experiment in a line: SPR (Carterra LSA), scFv-Fc captured, His-TIGIT analyte; repeat.
Assay [6] concerns the target T4, His-tagged cynomolgus monkey TIGIT …. The description is as above.
Assay [7] deals with T2, his-tagged murine TIGIT (Acro …). Nature of the assay: ELISA, coated His-TIGIT, 1 ug/ml.
For assay [8], the target named is T3, his-tagged human TIGIT (Acro Biosystems …). Nature of the assay: ELISA, coated His-TIGIT, 1 ug/ml.
Assay [9] deals with T4, His-tagged cynomolgus monkey TIGIT …. Nature of the assay: ELISA, coated His-TIGIT, 1 ug/ml.
For assay [10], the target named is T1, human TIGIT on Jurkat cells (TIGIT/NFAT …). Nature of the assay: flow cytometry, TIGIT/NFAT Jurkat cells, 10 ug/ml.
For assay [11], the target named is T3, his-tagged human TIGIT (Acro Biosystems …). The experiment in a line: SPR (Carterra LSA), antibody captured, His-TIGIT analyte.
In assay [12] the target is T4, His-tagged cynomolgus monkey TIGIT …. Described as above.
The target is the same in assay [13]. The experiment in a line: SPR (Carterra LSA), antibody captured, His-TIGIT analyte; repeat.

T4 sequence (A0A7N9I9V4 entry or part of it): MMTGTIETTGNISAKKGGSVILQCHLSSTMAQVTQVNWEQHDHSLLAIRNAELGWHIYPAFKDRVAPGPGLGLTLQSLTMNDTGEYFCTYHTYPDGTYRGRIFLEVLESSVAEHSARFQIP

B1: 43645p1.F11 (scFv, V domains shown)
VH: EVQLLESGGGLVQPGGSLRLSCAASGFTFSSYWMSWVRQAPGKGLEWVSGIHISDSTYYADSVKGRFTISRDNSKNTLYLQMNSLRAEDTAVYYCAKGHTVLQYGMDVWGQGTTVTVSS
VL: QSGLTQPPSASGTPGQRVTISCSGDISNTRNNYVSWYQQLPGTAPKLLIYRNSQRPSGVPDRFSGSKSATSASLAISGLQSEDEADYYCGTWDNTLNAWVFGGGTKLTVL
B1: the “max. signal (% of 22G2)” value in [1] was 100 % of 22G2. Moreover, the Kd in assay [2] stood at 235 nM; in assay [3], 0.322 nM; in [4], 33 nM; in [5] it was 91 nM; in assay [6] it was 16 nM. In addition, the “Elisa OD450” value was found to be 1.85 OD450 in [7], 2.03 OD450 in [8] and 1.8 OD450 in [9]. Further, in [10], the MFI came out at 10900 MFI.

B2: benchmark 22G2 (antibody, V domains shown)
VH: QVHLQESGPGLVKPSETLSLTCTVSGGSVSSGIYYWSWIRQPPGKGLEWIGYIYYSGSTNYNPSLKSRVTISVDTSKNQFSLKLSSVTAADTAVYYCARDYYVSGNYYNVDYYFFGVDVWGQGTTVTVSS
VL: EIVLTQSPATLSLSPGERATLSCRASQSVSSYLAWYQQKPGQAPRLLIYDASNRATGIPARFSGSGSGTDFTLTISSLEPEDFAVYYCQQRSNWPPLFTFGPGTKVDIK
For the molecule B2, the Kd was determined as 0.202 nM in assay [11], 16.1 nM in assay [12] and 3.4 nM in [13].

The values are drawn from patent publication US20230265187A1 (published 2023).
